Source: PMC5323203

Biological target: GST-Foxp1 fusion protein (mouse) (mouse) (UniProt P58462)
Assay: pull-down; GST or GST-Foxp1 from bacterial extracts immobilised on GSH-agarose beads and washed; 1 ul of 35S-labelled in vitro translated Ikaros in 200 ul 0.02 M HEPES-KOH pH 7.9, 0.1% NP-40, 0.15 M NaCl, 1 mM DTT, 1 h at 4°C; quantified relative to input and to wild type (100%)

Chain of UniProt P58462 (P58462 whole entry, the tested form may be a part): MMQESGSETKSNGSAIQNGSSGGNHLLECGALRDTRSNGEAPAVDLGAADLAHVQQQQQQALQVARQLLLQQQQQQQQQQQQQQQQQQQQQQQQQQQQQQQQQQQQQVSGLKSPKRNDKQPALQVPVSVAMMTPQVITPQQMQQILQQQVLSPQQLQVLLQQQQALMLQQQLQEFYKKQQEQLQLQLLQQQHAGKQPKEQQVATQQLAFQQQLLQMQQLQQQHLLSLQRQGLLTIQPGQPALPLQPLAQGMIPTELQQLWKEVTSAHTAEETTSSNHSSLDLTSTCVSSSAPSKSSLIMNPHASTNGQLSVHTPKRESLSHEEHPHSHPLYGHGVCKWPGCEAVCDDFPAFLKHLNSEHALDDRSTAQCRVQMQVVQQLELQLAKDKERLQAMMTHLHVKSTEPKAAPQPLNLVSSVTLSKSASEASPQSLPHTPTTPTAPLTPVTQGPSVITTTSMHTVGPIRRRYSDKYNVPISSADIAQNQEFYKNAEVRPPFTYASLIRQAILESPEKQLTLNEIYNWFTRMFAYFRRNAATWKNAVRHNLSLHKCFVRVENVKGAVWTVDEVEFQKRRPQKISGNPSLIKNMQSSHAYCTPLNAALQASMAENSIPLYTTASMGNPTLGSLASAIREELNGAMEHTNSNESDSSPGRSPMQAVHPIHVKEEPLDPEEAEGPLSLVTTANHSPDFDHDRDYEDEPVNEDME

Row | reduction relative to wild-type binding | Substance
1 | 50% | IKΔC458 (mouse Ikaros deletion of the two C-terminal zinc fingers; in vitro translated) (domain or fragment)
2 | 40% | IKΔ235-362 (mouse Ikaros deletion; in vitro translated) (domain or fragment)
